Test results from publication PMC6150735, “Molecular Docking-Based Design and Development of a Highly Selective Probe Substrate for UDP-glucuronosyltransferase 1A10” (Molecular Pharmaceutics, 2018).

Tests used:
Assay in all cases: Glucuronidation kinetics by UGT1A10 mutant 1A10-H210M (fluorescence decrease, 96-well plate)
Format in all cases: biochemical, human
Conditions in all cases: other: UGT1A10mutant (H210M), 7-hydroxyl glucuronidation, one experiment; pH 7.4; 37.0 °C
[1] = substrate: O=c1oc2cc(O)ccc2cc1-c1ccc(O)cc1
Experimental: (§1) The UGT1A10 mutant 1A10-H210 M was prepared according to the QuikChange methodology, using the cloned UGT1A10 in pFastBac[42] as a template and the following two oligonucleotides:
(§2) The entire coding sequence of UGT1A10 in the mutant clone was sequenced, and subsequently, recombinant baculovirus was prepared and used to express the mutant enzyme in baculovirus-infected SF9 insect cells.
(§3) The incubation mixtures for glucuronidation assays contained 100 mM Tris-HCl buffer pH 7.4, 2.5 mM MgCl2, 0.5 mM UDPGA, recombinant UGT, or microsomes as the enzyme source and 0–15 μM of the test aglycone substrate. When the incubation mixtures contained microsomes, alamethicin was used at a final concentration of 12.5 μg/mL, but it was not included in the recombinant enzyme assays.[43] In the first experiments three negative control samples were tested, namely (i) without the substrate 7-hydroxycoumarin derivative, (ii) without the cofactor UDPGA, or (iii) without the enzyme source. In subsequent experiments, the control samples lacked the enzyme source since it gave the highest fluorescence background. Preliminary experiments were done under different conditions than most of the later assays, namely in 2.5 mL of 100 mM phosphate buffer pH 7.4, containing 500 μg pig liver microsomes, 1.0 μM compound 6 and 0.5 mM UDPGA, at room temperature. Fluorescence spectra (excitation 200–420 nm; emission 400–600 nm) or fluorescence decrease at 390 nm excitation and 460 nm emission, were measured in these preliminary experiments, using a Shimadzu RF-5000 spectrophotofluorometer.
(§4) Most of the glucuronidation assays were carried out in 96 multiwell plate format, and incubations were carried out in 100 μL and at 37 °C, in the presence of Tris–HCl buffer pH 7.4, UDPGA, and the tested 7-hydroxycoumarin derivative, at the indicated concentrations. Fluorescence decline in the multiwell plate experiments was monitored every other minute, for 40 min, using an excitation filter at 405 nm and detection at 460 nm, in a Victor2 1420 Multilabel counter (PerkinElmer, Life Sciences, Turku, Finland). The fluorescence values were transformed into molarity using the aglycone substrates for making the respective standard curves. Slopes of the substrate concentration decrease per minute were calculated using linear regression analysis, in which the linear part of the kinetic assay indicated the glucuronidation rate. Enzyme catalyzed glucuronidation rate was calculated by subtracting the blank value from the full reaction value. The intra-assay variability of the kinetic assays was 6% when compound 6 was used as the aglycone substrate. Kinetic analyses were also performed in the same 96 multiwell plates format, with excitation filter at 405 nm and detection at 460 nm, using 6–8 different substrate concentrations per substrate and two different protein concentrations for both the wild-type and mutant UGT1A10. The higher concentrations, 13.5 mg/L for UGT1A10 and 12.0 mg/L for the UGT1A10 mutant, were used when the substrates were HFC, compounds 4 and 6, whereas the lower protein concentrations, 6.75 and 6.0 mg/L for UGT1A10 and the mutant, respectively, were used when the substrates were compounds 1, 2, 3, and 5.

[2] = substrate: O=c1cc(C(F)(F)F)c2ccc(O)cc2o1
Experimental: as §1, §2, §3, §4

[3] = substrate: O=c1oc2cc(O)ccc2cc1-n1cncn1
Experimental: as §1, §2, §3, §4

[4] = substrate: CN(C)c1ccc(-c2cc3ccc(O)cc3oc2=O)cc1
Experimental: as §1, §2, §3, §4

[5] = substrate: COc1ccc(-c2cc3ccc(O)cc3oc2=O)cc1
Experimental: as §1, §2, §3, §4

[6] = substrate: O=c1oc2cc(O)ccc2cc1-c1ccc(F)cc1
Experimental: as §1, §2, §3, §4

[7] = substrate: Cc1ccc(-c2cc3ccc(O)cc3oc2=O)cc1
Experimental: as §1, §2, §3, §4

B1: UGT1A10 mutant 1A10-H210M (Homo sapiens; H210M) (protein)
chain: GKLLVVPMDGSHWFTMQSVVEKLILRGHEVVVVMPEVSWQLERSLNCTVKTYSTSYTLEDQNREFMVFAHAQWKAQAQSIFSLLMSSSSGFLDLFFSHCRSLFNDRKLVEYLKESSFDAVFLDPFDTCGLIVAKYFSLPSVVFTRGIFCHHLEEGAQCPAPLSYVPNDLLGFSDAMTFKERVWNMIVHLEDHLFCQYLFRNALEIASEILQTPVTAYDLYSHTSIWLLRTDFVLDYPKPVMPNMIFIGGINCHQGKPLPMEFEAYINASGEHGIVVFSLGSMVSEIPEKKAMAIADALGKIPQTVLWRYTGTRPSNLANNTILVKWLPQNDLLGHPMTRAFITHAGSHGVYESICNGVPMVMMPLFGDQMDNAKRMETKGAGVTLNVLEMTSEDLENALKAVINDKSYKENIMRLSSLHKDRPVEPLDLAVFWVEFVMRHKGAPHLRPAAHDLTWYQYHSLDVIGFLLAVVLTVAFITFKCCAYGYRKCLGKKGRVKKAHKSKTH
notes: His-tag; made in house; host or cells: baculovirus-infected SF9 insect cells
- Km [1]: 7.8 (5.5–10.2) μM
- Vmax [1]: 0.0063 µmol/min/mg
- Vmax/Km [1]: 810 µL/min/mg
- Km [2]: 32.9 (0–102) μM
- Vmax [2]: 0.0117 µmol/min/mg
- Vmax/Km [2]: 360 µL/min/mg
- Km [3]: 26.8 (0–80) μM
- Vmax [3]: 0.0063 µmol/min/mg
- Vmax/Km [3]: 240 µL/min/mg
- Km [4]: 4.7 (1.5–7.9) μM
- Vmax [4]: 0.0065 µmol/min/mg
- Vmax/Km [4]: 1400 µL/min/mg
- Km [5]: 3.8 (0.97–6.7) μM
- Vmax [5]: 0.0095 µmol/min/mg
- Vmax/Km [5]: 2500 µL/min/mg
- Km [6]: 3.5 (0–9.3) μM
- Vmax [6]: 0.0087 µmol/min/mg
- Vmax/Km [6]: 2500 µL/min/mg
- Km [7]: 4.6 (1.5–7.8) μM
- Vmax [7]: 0.0059 µmol/min/mg
- Vmax/Km [7]: 1300 µL/min/mg
